Reference: the supplement of paper PMC6757056
± gives the standard deviation of the averaged measurements.

B1: library; a variant is named by its letters at N, in order (parent)
chain: GCUGUCACCGGUGCUUGGUACGUUAUAUUCAGCCGGUCUGAUGAGUCUNNNNNNAGACGAAACAGC

How the values were obtained:
(6R,S)-folinic acid [1] = variants of: B1; experiment: FACS-Seq fitted mean relative fluorescence mCherry/BFP without ligand (log10 relative fluorescence); HEK293T overexpressing SLC46A1; higher = higher reporter protein expression; conditions: without (6R,S)-folinic acid; ligand present: no
Summary of the method: (§1)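 Fluorescence figures are normalized fitted normal means of sequenced bin counts. Enriched, lentivirally transduced HEK293T libraries with a ribozyme-switch mCherry reporter and EF1α-BFP were held 48 h with or without ligand, then sorted into 6 mCherry/BFP bins. PCR-amplified, barcoded genomic DNA from each bin was sequenced on MiSeq. Means of log10(mCherry/BFP) were scaled to five spiked-in control ribozymes.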

(6R,S)-folinic acid [2] = variants of: B1; experiment: normalized RNA/DNA level without ligand (relative to sTRSVctl = 100) (log10 (% of sTRSVctl)); HEK293T overexpressing SLC46A1; higher = less ribozyme self-cleavage, higher mRNA level; conditions: without (6R,S)-folinic acid; ligand present: no
Summary of the method: (§2)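 Ribozyme switch library plasmids with mCherry reporters (eGFP in certain ligand experiments) went into HEK293T cells at 4 µg per 6-well well. Where ligand was used, it was applied 1 h before transfection, and total RNA was extracted with EDTA 72 h later for reverse transcription, amplification, barcoding and sequencing. RNA level is the RNA-to-DNA read ratio normalized to a spiked-in non-cleaving sequence or to the leading sequences, then scaled and log-transformed. Scaling was ×100 with log10, the leading set comprised 25 sequences, and the cutoff was ≥100 DNA reads.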

(6R,S)-folinic acid [3] = variants of: B1; experiment: FACS-Seq fitted mean relative fluorescence mCherry/BFP with ligand (log10 relative fluorescence); HEK293T overexpressing SLC46A1; ligand concentration (+) FACS-Seq: 6 mM; higher = higher reporter protein expression; conditions: with (6R,S)-folinic acid; ligand present: yes
Summary of the method: as §1

(6R,S)-folinic acid [4] = variants of: B1; experiment: normalized RNA/DNA level with ligand (relative to sTRSVctl = 100) (log10 (% of sTRSVctl)); HEK293T overexpressing SLC46A1; ligand concentration (+) RNA-Seq: 6 mM; higher = less ribozyme self-cleavage, higher mRNA level; conditions: with (6R,S)-folinic acid; ligand present: yes
Summary of the method: as §2

Variant | FACS-Seq fitted mean (log10) ((6R,S)-folinic acid [1]) | normalized RNA/DNA level without ligand (log10) ((6R,S)-folinic acid [2]) | FACS-Seq fitted mean (log10) ((6R,S)-folinic acid [3]) | normalized RNA/DNA level with ligand (log10) ((6R,S)-folinic acid [4])
GUUGCG | 0.325 ± 0.01 | 1.91 ± 0.02 | 0.566 ± 0.19 | 2.02 ± 0.038
GUUGCU | 0.299 ± 0.016 | 2.02 ± 0.023 | 0.44 ± 0.32 | 2.008 ± 0.018
AUUGUG | 0.281 ± 0.041 | 1.8 ± 0.0029 | 0.524 ± 0.1 | 1.99 ± 0.035
AUUCAG | 0.281 ± 0.045 | 1.962 ± 0.0047 | 0.431 ± 0.097 | 2.009 ± 0.018
CAACCC | – | 2.073 ± 0.0092 | – | 2.03 ± 0.079
CAACCU | – | 2.051 ± 0.012 | – | 2.05 ± 0.035
CAACCA | – | 2.032 ± 0.015 | – | 2.019 ± 0.013
CAACCG | – | 2.0386 ± 0.00089 | – | 2.04 ± 0.02
UUUAAG | 0.386 ± 0.13 | 1.769 ± 0.0025 | 0.698 ± 0.2 | 1.96 ± 0.046
UAACGU | – | 1.95 ± 0.028 | – | 2.003 ± 0.013
GUUCAC | 0.0291 ± 0.011 | 2.041 ± 0.016 | -0.0744 ± 0.017 | 2.032 ± 0.014
GUUCAA | 0.497 ± 0.083 | 1.98 ± 0.023 | 0.591 ± 0.17 | 1.98 ± 0.023
GUUUGU | 0.326 ± 0.024 | 2.03 ± 0.034 | 0.672 ± 0.18 | 2.034 ± 0.014
UUUUGG | 0.169 ± 0.054 | 1.8812 ± 0.0015 | 0.473 ± 0.2 | 2.01 ± 0.028
UUUUGA | 0.586 ± 0.1 | 1.976 ± 0.013 | 0.704 ± 0.022 | 2.02 ± 0.036
GAACGU | – | 1.988 ± 0.0095 | – | 2 ± 0.027
GAAAUU | – | 2.03 ± 0.0031 | – | 2.05 ± 0.025
GAAAUC | – | 2.044 ± 0.0097 | – | 2.027 ± 0.018
CUGGCU | 0.556 ± 0.0076 | 2.033 ± 0.016 | 0.55 ± 0.13 | 2.02 ± 0.036
AUUUAU | 0.207 ± 0.088 | 2.011 ± 0.0041 | 0.186 ± 0.11 | 2.01 ± 0.035
AUUUAC | 0.138 ± 0.029 | 2.001 ± 0.018 | 0.497 ± 0.13 | 2.03 ± 0.026

Variant | FACS-Seq fitted mean (log10) ((6R,S)-folinic acid [1]) | normalized RNA/DNA level without ligand (log10) ((6R,S)-folinic acid [2]) | FACS-Seq fitted mean (log10) ((6R,S)-folinic acid [3]) | normalized RNA/DNA level with ligand (log10) ((6R,S)-folinic acid [4])
UUGGGG | 0.207 ± 0.029 | 1.824 ± 0.0037 | 0.521 ± 0.12 | 2.02 ± 0.036
UUGGGU | 0.184 ± 0.18 | 1.943 ± 0.0059 | 0.455 ± 0.16 | 1.98 ± 0.033
UUUCUG | 0.112 ± 0.063 | 1.92 ± 0.0064 | 0.197 ± 0.012 | 2 ± 0.061
AUUUUG | 0.462 ± 0.029 | 1.927 ± 0.014 | 0.552 ± 0.039 | 1.99 ± 0.05
AUUUUC | 0.447 ± 0.23 | 2.031 ± 0.0051 | 0.549 ± 0.048 | 2 ± 0.021
AUUUUA | 0.5131 ± 0.0034 | 1.969 ± 0.0082 | 0.318 ± 0.1 | 2.01 ± 0.023
UUGUAG | 0.271 ± 0.0067 | 1.866 ± 0.0056 | 0.397 ± 0.18 | 1.992 ± 0.0089
UUGUAU | -0.387 ± 0.048 | 1.99 ± 0.02 | -0.176 ± 0.12 | 2.014 ± 0.0072
UUUGAU | 0.135 ± 0.022 | 1.9541 ± 0.0016 | 0.206 ± 0.34 | 1.99 ± 0.065
UUUGAG | -0.104 ± 0.12 | 1.735 ± 0.0097 | 0.41 ± 0.25 | 1.98 ± 0.033
UUUGAA | 0.0652 ± 0.029 | 1.918 ± 0.0086 | 0.135 ± 0.075 | 1.98 ± 0.042
AUUAUU | 0.191 ± 0.11 | 2.02 ± 0.023 | 0.497 ± 0.056 | 2.03 ± 0.024
GAAACA | – | 2.017 ± 0.018 | – | 2.04 ± 0.026
GAAACC | – | 2.035 ± 0.013 | – | 2.03 ± 0.033
GAAACG | – | 1.961 ± 0.0057 | – | 2 ± 0.038
AUGGUA | 0.132 ± 0.069 | 1.91 ± 0.0083 | 0.165 ± 0.17 | 1.98 ± 0.038
AUGGUG | 0.433 ± 0.026 | 1.786 ± 0.011 | 0.485 ± 0.12 | 2.01 ± 0.024
AUGGUU | 0.245 ± 0.097 | 1.98 ± 0.026 | 0.136 ± 0.14 | 2.01 ± 0.027
CUUGUG | 0.147 ± 0.16 | 2.021 ± 0.012 | -0.331 ± 0.28 | 2.02 ± 0.039
UUUUAC | 0.482 ± 0.098 | 1.975 ± 0.002 | 0.507 ± 0.18 | 1.97 ± 0.04
UUUUAG | 0.393 ± 0.03 | 1.836 ± 0.0045 | 0.488 ± 0.26 | 1.97 ± 0.051

Variant | FACS-Seq fitted mean (log10) ((6R,S)-folinic acid [1]) | normalized RNA/DNA level without ligand (log10) ((6R,S)-folinic acid [2]) | FACS-Seq fitted mean (log10) ((6R,S)-folinic acid [3]) | normalized RNA/DNA level with ligand (log10) ((6R,S)-folinic acid [4])
UUGGUG | 0.364 ± 0.16 | 1.75 ± 0.031 | 0.52 ± 0.26 | 2.01 ± 0.053
AUGGCG | 0.284 ± 0.024 | 1.91 ± 0.022 | 0.359 ± 0.058 | 2.04 ± 0.031
GUUGGU | 0.346 ± 0.21 | 1.98 ± 0.027 | 0.126 ± 0.09 | 2.02 ± 0.029
GUUGGA | 0.594 ± 0.3 | 1.977 ± 0.013 | 0.154 ± 0.35 | 2.02 ± 0.04
AAACCG | – | 1.97 ± 0.0043 | – | 2 ± 0.029
AAACCC | – | 2.048 ± 0.0094 | – | 2.032 ± 0.0089
AAACCU | – | 2.0232 ± 0.0015 | – | 2.03 ± 0.031
CAACUC | – | 2.06 ± 0.015 | – | 2.06 ± 0.024
CAACUA | – | 2.01 ± 0.023 | – | 2.01 ± 0.035
CAACUU | – | 2.039 ± 0.012 | – | 2.03 ± 0.052
CAACUG | – | 2.029 ± 0.015 | – | 2.021 ± 0.016
UUUAUG | 0.307 ± 0.0054 | 1.79 ± 0.024 | 0.315 ± 0.17 | 1.96 ± 0.041
UUUACU | 0.0671 ± 0.017 | 2.032 ± 0.0085 | -0.0776 ± 0.03 | 2.033 ± 0.013
UUUACC | 0.636 ± 0.0052 | 1.996 ± 0.018 | 0.724 ± 0.077 | 1.97 ± 0.036
AUUGAA | 0.561 ± 0.054 | 1.97 ± 0.01 | 0.718 ± 0.079 | 2 ± 0.014
AUUGAG | 0.4944 ± 0.0016 | 1.715 ± 0.01 | 0.969 ± 0.14 | 1.946 ± 0.012
GUUAUG | 0.244 ± 0.011 | 1.929 ± 0.0065 | 0.431 ± 0.16 | 1.99 ± 0.0045
GUUAUA | -0.102 ± 0.13 | 1.99 ± 0.031 | -0.0941 ± 0.099 | 2.012 ± 0.019
UAACCC | – | 1.991 ± 0.011 | – | 2 ± 0.035
UAACCU | – | 2.01 ± 0.024 | – | 2.018 ± 0.0082
AUGUGG | 0.0386 ± 0.035 | 1.844 ± 0.0091 | 0.311 ± 0.041 | 2.01 ± 0.046

Variant | FACS-Seq fitted mean (log10) ((6R,S)-folinic acid [1]) | normalized RNA/DNA level without ligand (log10) ((6R,S)-folinic acid [2]) | FACS-Seq fitted mean (log10) ((6R,S)-folinic acid [3]) | normalized RNA/DNA level with ligand (log10) ((6R,S)-folinic acid [4])
UUUUUG | 0.145 ± 0.073 | 1.855 ± 0.016 | 0.176 ± 0.0085 | 2 ± 0.022
UAAGAC | – | 1.984 ± 0.00031 | – | 2.01 ± 0.034
UAAGAU | – | 1.9446 ± 0.0012 | – | 2.01 ± 0.024
GUUGUG | 0.391 ± 0.14 | 1.879 ± 0.0056 | 0.458 ± 0.072 | 2.01 ± 0.023
GUUGUA | 0.281 ± 0.083 | 1.962 ± 0.011 | 0.415 ± 0.15 | 1.97 ± 0.05
CAAGAC | – | 2.026 ± 0.0013 | – | 2.03 ± 0.038
CAAGAU | – | 1.97 ± 0.009 | – | 2.01 ± 0.025
GUUUAG | 0.516 ± 0.048 | 1.965 ± 0.0083 | 0.495 ± 0.068 | 2.02 ± 0.033
CAAAAG | – | 1.903 ± 0.0085 | – | 1.945 ± 0.015
CAAAAA | – | 1.962 ± 0.007 | – | 1.96 ± 0.025
AUGUAG | 0.508 ± 0.058 | 1.864 ± 0.016 | 0.615 ± 0.17 | 1.99 ± 0.035
UAAGCC | – | 2 ± 0.0023 | – | 2.03 ± 0.038
CUUUUC | 0.721 ± 0.2 | 2.06 ± 0.023 | 0.481 ± 0.091 | 2.02 ± 0.036
CUUUUU | 0.61 ± 0.16 | 1.991 ± 0.013 | 0.733 ± 0.016 | 2.021 ± 0.018
CUUAUU | 0.473 ± 0.12 | 1.985 ± 0.0074 | 0.678 ± 0.072 | 2.01 ± 0.024
CAAAGA | – | 1.988 ± 0.015 | – | 1.99 ± 0.034
CAAAGC | – | 1.992 ± 0.015 | – | 2 ± 0.04
CAAAGG | – | 1.909 ± 0.0072 | – | 2 ± 0.021
CAAAGU | – | 1.983 ± 0.013 | – | 2.01 ± 0.025
GUGGUG | 0.383 ± 0.21 | 1.92 ± 0.024 | 0.306 ± 0.32 | 2 ± 0.043
